Laboratory results: US20100022459A1

Molecular target: β-amyloid1-42 (UniProt P05067)
Experiment: cell-based or functional assay

amount of globulomers (densitometry of the 6E10 western blot) (% of the control): 45
Substance: D-Trp-Aib (peptide)
